EC50, phosphorylation of ERK1/2 in CHO-C3aR cells (AlphaLISA, 10 min), EC50 and phosphorylation of ERK1/2 in HMDMs (AlphaLISA, 10 min), EC50 data for two compounds are collected here from paper PMC7859635, “The “C3aR Antagonist” SB290157 is a Partial C5aR2 Agonist” (Frontiers in Pharmacology, 2021).

Test [1] concerns the target T1, C5aR2 (Homo sapiens, UniProt Q9P296).
T1 construct: human C5aR2-Venus
Description: BRET β-arrestin […] recruitment to C5aR2 in transfected HEK293 cells (partial agonist). It is filed as cell-based. On the technique in general: BRET reads energy transfer from a luciferase to a nearby fluorophore.

Test [2] has as its target human C3aR on Chinese hamster ovary cells stably expressing C3aR (CHO-C3aR) (human) (UniProt Q16581).
Test [3] addresses human C3aR of human monocyte-derived macrophages (HMDMs) (human (endogenous in HMDMs)) (UniProt Q16581).

Sequence of purified human C3a (P01024 672-748): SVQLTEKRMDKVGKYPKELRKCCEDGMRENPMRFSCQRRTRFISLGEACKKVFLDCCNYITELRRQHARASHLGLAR
Sequence of human C3aR on Chinese hamster ovary cells stably expressing C3aR (CHO-C3aR) (human) (Q16581 whole entry): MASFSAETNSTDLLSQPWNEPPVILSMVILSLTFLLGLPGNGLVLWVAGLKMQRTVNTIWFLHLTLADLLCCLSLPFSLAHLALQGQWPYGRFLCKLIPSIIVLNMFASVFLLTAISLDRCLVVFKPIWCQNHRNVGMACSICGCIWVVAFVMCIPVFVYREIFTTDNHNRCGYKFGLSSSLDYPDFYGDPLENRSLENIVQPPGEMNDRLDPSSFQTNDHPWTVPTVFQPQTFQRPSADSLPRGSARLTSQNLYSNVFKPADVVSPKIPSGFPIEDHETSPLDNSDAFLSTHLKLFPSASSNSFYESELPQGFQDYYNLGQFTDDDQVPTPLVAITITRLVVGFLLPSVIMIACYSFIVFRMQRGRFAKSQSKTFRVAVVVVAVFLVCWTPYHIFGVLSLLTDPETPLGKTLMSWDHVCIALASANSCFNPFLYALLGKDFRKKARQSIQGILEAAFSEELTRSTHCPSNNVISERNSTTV
Sequence of human C3aR of human monocyte-derived macrophages (HMDMs) (human (endogenous in HMDMs)) (Q16581 whole entry): as above
T1 sequence (Q9P296 whole entry): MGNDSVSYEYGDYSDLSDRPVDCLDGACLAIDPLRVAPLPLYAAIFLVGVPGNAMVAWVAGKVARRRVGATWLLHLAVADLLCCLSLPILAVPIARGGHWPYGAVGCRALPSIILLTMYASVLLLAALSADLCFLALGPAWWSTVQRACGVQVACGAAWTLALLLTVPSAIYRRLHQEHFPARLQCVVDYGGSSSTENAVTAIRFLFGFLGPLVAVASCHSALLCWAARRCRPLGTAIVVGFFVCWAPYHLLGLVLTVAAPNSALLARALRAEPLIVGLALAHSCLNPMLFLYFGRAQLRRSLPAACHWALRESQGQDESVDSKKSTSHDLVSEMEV

For orientation: EC50 means the concentration at which the effect is half-maximal. A higher EC50 goes with a less potent agent. `N=C(N)NCCC[C@H](NC(=O)COCC(c1ccccc1)c1ccccc1)C(=O)O` [SB290157]: in test [1], it took 16100 nM to reach a half-maximal effect (EC50). In other words, the double-digit micromolar range.
In the case of “purified human C3a (from UniProt P01024 672-748) (ligand)”, the phosphorylation of ERK1/2 in CHO-C3aR cells (AlphaLISA, 10 min), EC50 in test [2] came to 0.39 nM. Also, the phosphorylation of ERK1/2 in HMDMs (AlphaLISA, 10 min), EC50 in test [3] was determined as 0.21 nM.
